Among the data in patent US20030082561 are Kd values, retold here.

Experiment in all cases: EMSA
(In general: A gel shift assay detects complexes by their altered migration in electrophoresis.)

The test system of data set [1] is ZFP Clone 7 (6-finger) (artificial). The settings on record: probe flanks not given; 0.1 mM ZnCl2, 100 mM NaCl, on ice.
Data set [2] deals with ZFP Clone 6 (6-finger) (artificial). The settings on record: probe flanks not given; 0.1 mM ZnCl2, 100 mM NaCl, on ice.
Data set [3] has as its system ZFP Clone 5 (BCTV L1 6-finger) (artificial). The settings on record: 10 mM Tris-HCl pH 7.5, 100 mM NaCl, 1 mM MgCl2, 0.1 mM ZnCl2, 1 mg/ml BSA, 10% glycerol, poly(dA-dT)2, on ice.

On to “TACGTGGCATTGGGTGCTC (double strand) [Clone 7 target]”, for which, in data set [1], the Kd was under 3 pM.

Regarding “AGTAAGGTAGGAGATGATA (double strand) [Clone 6 target]”, the Kd in data set [2] is under 3 pM.

For “TATATATATTGGGTGCTTTGGGTGCTCTATATATA (double strand) [L1 19-bp target probe]”, the Kd in data set [3] was under 3 pM.

Usually Kd stands for the constant that tells how readily two partners part at equilibrium.
